Results on six molecules are retold here after patent US20020002269A1, “ARTEMIN, A NEUROTROPHIC FACTOR” (priority 1998, published 2002).

Test [1] deals with SH-SY5Y neuroblastoma cell line. The test can be described thus: Differentiation of SH-SY5Y neuroblastoma cells. It is filed as cell-based. The settings on record: 10 μM, three days after factor addition, FIG. 8B. The protocol:
In one experiment, cells from the SH-SY5Y neuroblastoma cell line were plated at 2×10^5 cells/ml/well in 12-well tissue culture plates. After one day in culture cells were either left untreated (Cn) or stimulated with 50 ng/ml artemin (ART) or 10 μM retinoic acid (RA), a known inducer of differentiation of SH-SYSY cells. Three days after factor addition, differentiation was assessed and cells were photographed.

Test [2] addresses recombinant neurturin (human mature amino acid sequence) (human). The test can be described thus: plate binding assay: ligand coated, soluble receptor body titrated, anti-human Fc-HRP, A450; apparent Kd.
Test [3] addresses recombinant GDNF (human mature amino acid sequence) (human). The description is as above.
The target of test [4] is recombinant human artemin protein (human). Described as above.
Test [5] has as its system GFRα2-Fc. Put plainly: Direct binding of soluble GFRα2-Fc receptor body to plate-coated ligand. The following applies: ligand coated at 325 ng/ml, absence of RET, FIG. 9D. The protocol:
To investigate which if any of the known coreceptor(s) artemin can utilize to activate RET, its ability to directly bind to soluble Fc-fusion forms of GFRα1, GFRα2, or GFRα3 was assessed. GFRα1-Fc, GFRα2-Fc and GFRα3-Fc fusion proteins were obtained from R&D Systems. Binding assays were performed similarly to assays previously described (Sanicola et al., Proc. Natl. Acad. Sci., USA 94:6238-6243, 1997). Recombinant GDNF, neurturin, artemin, persephin, or purified bovine serum albumin (BSA; Pierce) were coated to Nunc-Immuno MaxiSorp microtiter plates at 325 ng/ml in TBS (10 mM Tris-HCl pH 7.5, 150 mM NaCl) for 1 hour at 25° C. Plates were washed (3× in TBS/0.03% Tween-20), and then blocked (blocking solution: TBS/1% BSA) for 1 hr at 25° C. Receptor bodies diluted in blocking solution were added and incubated for 2 hr at 25° C., washed 5X, then incubated with 1:10,000 dilution of HRP-conjugated anti-human Fc antibodies in blocking solution (Jackson Immunoresearch) for 45 minutes at 25° C. […] The reaction was stopped by adding an equal volume of 0.5M H2SO4, and color was measured in a plate reader at 450 nm. Non-specific binding of receptor bodies to the plates was measured in BSA coated wells, and this binding was subtracted from all other measurements.

Test [6] deals with GFRα1-Fc. The test can be described thus: Direct binding of soluble GFRα1-Fc receptor body to plate-coated ligand. The following applies: ligand coated at 325 ng/ml, absence of RET, FIG. 9C. The protocol: To investigate which if any of the known coreceptor(s) artemin can utilize to activate RET, its ability to directly bind to soluble Fc-fusion forms of GFRα1, GFRα2, or GFRα3 was assessed. GFRα1-Fc, GFRα2-Fc and GFRα3-Fc fusion proteins were obtained from R&D Systems. Binding assays were performed similarly to assays previously described (Sanicola et al., Proc. Natl. Acad. Sci., USA 94:6238-6243, 1997). Recombinant GDNF, neurturin, artemin, persephin, or purified bovine serum albumin (BSA; Pierce) were coated to Nunc-Immuno MaxiSorp microtiter plates at 325 ng/ml in TBS (10 mM Tris-HCl pH 7.5, 150 mM NaCl) for 1 hour at 25° C. Plates were washed (3× in TBS/0.03% Tween-20), and then blocked (blocking solution: TBS/1% BSA) for 1 hr at 25° C. Receptor bodies diluted in blocking solution were added and incubated for 2 hr at 25° C., washed 5X, then incubated with 1:10,000 dilution of HRP-conjugated anti-human Fc antibodies in blocking solution (Jackson Immunoresearch) for 45 minutes at 25° C. Finally, wells were washed 5× and the presence of HRP was assayed by addition of the chromogenic substrate 3,3, 5,5-tetramethylbenzidine for 5 min. The reaction was stopped by adding an equal volume of 0.5M H2SO4, and color was measured in a plate reader at 450 nm. Non-specific binding of receptor bodies to the plates was measured in BSA coated wells, and this binding was subtracted from all other measurements.

Test [7] has as its system nodose ganglion (NG) neurons. Put plainly: Survival of cultured nodose ganglion neurons. It is filed as cell-based, rat. The settings on record: FIG. 7D. As to the method:
(§1) Each GDNF ligand family member consisted of the human mature amino acid sequence and was produced by standard recombinant DNA methods. Recombinant GDNF, neurturin and persephin were obtained from Genentech while recombinant artemin was produced as described in Example 3.
(§2) The cultures were performed using standard methods described elsewhere (Kotzbauer et al., Neuron 12:763-773, 1994; Kotzbauer et al., Nature 384:467-470, 1996; Milbrandt et al., Neuron 20:245-253, 1998). In brief, for SCG neurons, after dissection and dissociation, neurons were plated on collagen-coated 24-well tissue culture plates and maintained in NGF-containing medium (AM50) for 5 days, after which they were either kept in AM50 or switched to medium containing neutralizing anti-NGF antibodies plus GDNF, neurturin, persephin, artemin, (50 ng/ml where not noted otherwise), or no growth factors. Cultures were maintained for 3 days, after which they were fixed in 4% paraformaldehyde and stained with toluidine blue, and surviving neurons were counted. For nodose ganglion and dorsal root ganglion neuron cultures, dissociated neurons were plated directly into NGF (for dorsal root ganglia), or BDNF (for nodose ganglia, 100 ng/ml) or one of the GDNF ligands in serum-containing medium (AM50 with anti-NGF antibodies), and cells surviving after 3 days in culture were counted as above. Trigeminal ganglia were dissected, dissociated, and plated directly into medium containing NGF or the indicated GDNF ligands, and the number of surviving cells was assessed after 3 days in vitro. For all culture systems, 2-3 independent experiments were performed.

In test [8] the test system is trigeminal ganglion (TG) neurons. Put plainly: Survival of cultured trigeminal ganglion neurons. The format is cell-based, rat. The settings on record: 50 ng/ml, 3 days in vitro, FIG. 7C. The protocol:
as §1, §2

Test [9] relates to SAN neuroblastoma cell line. Put plainly: Responsiveness of a neuroblastoma cell line that does not express RET (SAN). It is filed as cell-based. The settings on record: data not shown.
The subject of test [10] is dorsal root ganglion (DRG) neurons. Put plainly: Survival of cultured dorsal root ganglion neurons. The format is cell-based, rat. The settings on record: 50 ng/ml, 3 days in culture, FIG. 7A. As to the method:
as §1, §2

The subject of test [11] is CHP126 neuroblastoma cell line. Put plainly: Responsiveness of a neuroblastoma cell line that does not express RET (CHP126). The format is cell-based. The following applies: data not shown.
Test [12] concerns CHP134 neuroblastoma cell line. The test can be described thus: Responsiveness of a neuroblastoma cell line that does not express RET (CHP134). The following applies: data not shown. It is filed as cell-based.
Test [13] deals with NBL-S neuroblastoma cell line. Put plainly: BrdU cell proliferation assay in NBL-S neuroblastoma cells. The format is cell-based. The settings on record: 50 ng/mL, 30 hrs after factor addition, FIG. 8D. As to the method:
In another experiment, the ability of artemin to induce proliferation of the NBL-S neuroblastoma cell line was examined. NBL-S cells were plated at 5×10^4 cells/well on 48-well plates in standard medium, either without treatment or in the presence of 50 ng/mL of GDNF, artemin, or persephin. Actively dividing cells undergoing DNA synthesis 30 hrs after factor addition were detected using the BrdU (colorimetric) cell proliferation assay kit according to the manufacturer's instructions (Boehringer-Mannheim) and the data are shown in FIG. 8D.

As to `CC1=C(/C=C/C(C)=C/C=C/C(C)=C/C(=O)O)C(C)(C)CCC1` [retinoic acid, all-trans retinoic acid, reference compound], in test [1], the “differentiation (neurite outgrowth, neuronal morphology) of SH-SY5Y cells” value is recorded as “induced strong differentiation responses”.
For the molecule GFRα1-Fc fusion protein, the Kd in test [2] and in [3] was 3 nM each time.
Consider GFRα3-Fc fusion protein, for which, in [4], the Kd stood at 3 nM.
For the molecule GFRα2-Fc fusion protein, the Kd in test [2] was found to be 3 nM.

B1: neurturin: recombinant human mature neurturin obtained from Genentech (protein, UniProt Q99748 96-197, looked up)
Neurturin: ARLGARPCGLRELEVRVSELGLGYASDETVLFRYCAGACEAAARVYDLGLRRLRQRRRLRRERVRAQPCCRPTAYEDEVSFLDAHSRYHTVHELSARECACV
Regarding B1, the “direct binding of GFRα2-Fc” value in [5] is reported as “bound to neurturin”. For the same molecule, the “direct binding of GFRα1-Fc” value in test [6] was “able to bind to both GDNF and neurturin with similar affinity”. In [7] (50 ng/ml, 3 days in culture), the “survival of NG neurons” value is listed as “supported similar numbers of NG neurons”. For the same molecule, the “survival promotion of NG neurons compared with BDNF” value in [7] (GDNF family ligands 50 ng/ml, BDNF 100 ng/ml) is reported as “equal or greater survival promotion than BDNF”. Moreover, the “survival of TG sensory neurons” value in test [8] is reported as “supported the survival of a subset of sensory neurons”. Further, in test [9], the “response of SAN cells” value is recorded as “did not respond”. Moreover, the “survival of DRG sensory neurons” value in [10] is listed as “supported the survival of a subset of sensory neurons”. In addition, the “response of CHP126 cells” value in [11] is listed as “did not respond”. Also, in test [12], the “response of CHP134 cells” value is recorded as “did not respond”.

B2: persephin: recombinant human mature persephin obtained from Genentech (protein, UniProt O60542 22-156, looked up)
Persephin: WGPDARGVPVADGEFSSEQVAKAGGTWLGTHRPLARLRRALSGPCQLWSLTLSVAELGLGYASEEKVIFRYCAGSCPRGARTQHGLALARLQGQGRAHGGPCCRPTRYTDVAFLDDRHRWQRLPQLSAAACGCGG
As for B2, the “direct binding of GFRα1-Fc” value in test [6] is given as “not to persephin or artemin”. The “proliferation of NBL-S cells (BrdU incorporation)” value in test [13] is reported as “did not”.
